Source: US7052851B2, “Crystal structure of cysteine protease” (Novartis International AG, priority 1996, dated 2006)
The star is where a group is joined. CH2F = FC*

Molecular target: T1, recombinant human CPP32 (Homo sapiens, UniProt P42574)
T1 construct: β-CHAIN; 29; 175; CPP32 P17 SUBUNIT; α-CHAIN; 176; 277; CPP32 P12 SUBUNIT; made in house; host or cells: E. coli BL21 (DE3), pET21b
T1 sequence (P42574 29-175): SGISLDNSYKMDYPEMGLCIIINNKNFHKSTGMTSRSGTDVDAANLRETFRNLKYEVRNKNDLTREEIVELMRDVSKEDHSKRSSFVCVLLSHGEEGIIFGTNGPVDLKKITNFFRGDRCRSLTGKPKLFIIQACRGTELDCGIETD
T1 sequence (P42574 176-277): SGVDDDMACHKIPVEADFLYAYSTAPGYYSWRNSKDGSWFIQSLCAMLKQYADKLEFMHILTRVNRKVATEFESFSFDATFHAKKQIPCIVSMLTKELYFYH
Assay: CPP32 protease activity inhibition (enzyme treated with irreversible inhibitor before crystallization)
Format: biochemical
Details: slight excess (1.6×) of inhibitor added to purified recombinant human CPP32 (C-terminal 6His) in 50 mM DTT, 50 mM HEPES, pH 8.0, on ice
Source text: As defined herein, purified CPP32 is more than 95% homogeneous. Protein homogeneity is determinable according to analytical methods well-known in the art, e.g. sequence analysis, electrophoresis, spectroscopic or chromatographic techniques. The purified protein is enzymatically active. Appropriate assays for determining CPP32 protease activity towards a suitable substrate, e.g. a natural substrate, such as PARP, or a synthetic substrate which is cleavable by CPP32, is known in the art. Advantagously, a peptide, such as aminomethylcoumarin, is used as synthetic substrate. […]
Recombinant human CPP32 expressed in a soluble form in E. coli (E. coli BL21) is purified to homogeneity by Ni^2+ chromatography using an imidazole gradient (60 mM-1 M). […] The purified CPP32 protein is more than 95% homogeneous, as determined by SDS-PAGE (10–20% gradient gel), reverse phase high performance liquid chromatography (RP-HPLC), MALDI-TOF mass spectrometry, N-terminal sequence and amino acid analysis. […] The purified CPP32 protein which is a (p17p12)2 tetramer in solution, as analyzed by dynamic light scattering, compares to the published CPP32 amino acid sequence (Fernandes-Alnemri, T., Litwack, G. & Alnemri, E. S. (1994). J. Biol. Chem. 269, 30761–30764, FIG. 1, p.30762) as follows: […]

enzyme inhibited: 99.9%
Substance: Ac-Asp-Val-Ala-Asp-fluoromethylketone (Ac-DVAD-CH2F; SMILES CC(=O)N[C@@H](CC(=O)O)C(=O)N[C@H](C(=O)N[C@@H](C)C(=O)N[C@@H](CC(=O)O)C(=O)CF)C(C)C)
